Biological target: recombinant fusion p30-mFc protein (ASFV p30 fused to mouse IgG1 Fc) (African swine fever virus (strain not stated)) (UniProt P34204)
Assay: SEC-MALS

With “recombinant fusion p30-mFc protein (ASFV p30 fused to mouse IgG1 Fc) (from UniProt P34204 1-204) (Fc fusion)” the stoichiometry N was 2.

— PMC9769802
